Experimental data taken from the Immune Epitope Database (IEDB).

Tests used:
HLA-A*24:02 [1] = assay: IEDB peptide-MHC binding, purified MHC/competitive/fluorescence; ≥ and ≤ were set here for values at or beyond the usual limits of such assays
HLA-A*24:03 = assay: IEDB peptide-MHC binding, purified MHC/direct/fluorescence; filed as Kd, often an IC50 or EC50 that approximates it; ≥ and ≤ were set here for values at or beyond the usual limits of such assays
HLA-A*26:01 [2] = assay: IEDB peptide-MHC binding, purified MHC/competitive/radioactivity; filed as Kd, often an IC50 or EC50 that approximates it; ≥ and ≤ were set here for values at or beyond the usual limits of such assays; details: source organism: Dengue virus 4 Philippines/H241/1956
HLA-B*15:01 [3] = assay: as above
HLA-A*01:01 [4] = assay: as above; details: source organism: Dengue virus 4 Philippines/H241/1956
HLA-A*30:02 = assay: as above
HLA-A*02:01 [5] = assay: IEDB peptide-MHC binding, purified MHC/competitive/fluorescence; ≥ and ≤ were set here for values at or beyond the usual limits of such assays; details: source organism: Vaccinia virus WR
HLA-A*24:02 [6] = assay: IEDB peptide-MHC binding, purified MHC/competitive/radioactivity; filed as Kd, often an IC50 or EC50 that approximates it; ≥ and ≤ were set here for values at or beyond the usual limits of such assays; details: source organism: Dengue virus 2 Jamaica/1409/1983
HLA-B*53:01 = assay: as above; details: source organism: Dengue virus 2 Jamaica/1409/1983
HLA-A*23:01 = assay: as above; details: source organism: Dengue virus 2 Jamaica/1409/1983
HLA-B*35:01 = assay: as above; details: source organism: Dengue virus 2 Jamaica/1409/1983
HLA-B*15:01 [7] = assay: IEDB peptide-MHC binding, purified MHC/competitive/fluorescence; filed as Kd, often an IC50 or EC50 that approximates it; ≥ and ≤ were set here for values at or beyond the usual limits of such assays; details: source organism: Kurkino virus
HLA-B*48:01 = assay: IEDB peptide-MHC binding, purified MHC/direct/fluorescence; filed as Kd, often an IC50 or EC50 that approximates it; ≥ and ≤ were set here for values at or beyond the usual limits of such assays; details: source organism: Cryptosporidium parvum Iowa II
HLA-A*11:01 = assay: as above
HLA-A*26:01 [8] = assay: as above
HLA-A*69:01 = assay: as above
HLA-B*27:05 = assay: as above
HLA-B*15:01 [9] = assay: as above
HLA-B*44:02 = assay: as above
HLA-A*03:01 = assay: as above
HLA-B*40:01 = assay: as above
HLA-A*02:01 [10] = assay: as above
HLA-B*08:01 = assay: as above; details: source organism: Escherichia coli O157:H7
HLA-A*01:01 [11] = assay: as above
HLA-B*58:01 = assay: as above
HLA-A*31:01 = assay: as above
HLA-B*07:02 = assay: as above; details: source organism: Escherichia coli
[12] = source organism: Dengue virus 4 Philippines/H241/1956
[13] = source organism: Dengue virus 2 Jamaica/1409/1983
[14] = source organism: Vaccinia virus WR
[15] = source organism: Escherichia coli O157:H7
[16] = source organism: Escherichia coli
[17] = source organism: Giardia lamblia ATCC 50803

Question: With ADIGEWAFW as the sequence, how does the IC50 (HLA-A*24:02 [1]; source organism: Sudan ebolavirus) read?
Answer: 19.4 µM

Question: For AFMRFDDQF, which Kd (HLA-A*24:03; source organism: Listeria monocytogenes) is on record?
Answer: ≤ 0.001 µM

Question: How did the IC50 (HLA-A*24:02 [1]; source organism: Vaccinia virus Copenhagen) turn out when AKCIEYVTL was run?
Answer: ≥ 172 µM

Question: Which results are given for ALITVSGLY?
Answer: Kd (HLA-A*26:01 [2]): 0.56 µM; Kd (HLA-B*15:01 [3]; [12]): 0.00226 µM; Kd (HLA-A*01:01 [4]): 8.11 µM; Kd (HLA-A*30:02; [12]): 0.00068 µM

Question: Which results are given for ALLLLVAHY?
Answer: Kd (HLA-B*15:01 [3]; [13]): 0.0506 µM; Kd (HLA-A*30:02; [13]): ≥ 76.9 µM

Question: Which Kd (HLA-B*15:01 [3]; [12]) does the source give for ALMVIGMAM here?
Answer: 0.00262 µM

Question: AVKYLEGHG was tested. Which IC50 (HLA-A*24:02 [1]; source organism: Zaire ebolavirus) did it give?
Answer: ≥ 117 µM

Question: EILNTIQFM was tested. Which IC50 (HLA-A*24:02 [1]; [14]) did it give?
Answer: ≥ 111 µM

Question: What about the IC50 (HLA-A*02:01 [5]) of the same sequence?
Answer: 7.58 µM

Question: How did the Kd (HLA-B*15:01 [3]; [14]) turn out when EIYTYFSHC was run?
Answer: 0.933 µM

Question: EYSKDSRNK was tested. Which IC50 (HLA-A*24:02 [1]; source organism: Vaccinia virus) did it give?
Answer: ≥ 284 µM

Question: With FAPSYSAEM as the sequence, how does the Kd (HLA-B*15:01 [3]; [14]) read?
Answer: 0.454 µM

Question: How did the Kd (HLA-A*24:02 [6]) turn out when FMALVAFLRF was run?
Answer: ≥ 27.9 µM

Question: What about the Kd (HLA-B*15:01 [3]; [13]) of the same sequence?
Answer: 0.229 µM

Question: And the Kd (HLA-B*53:01)?
Answer: 1 µM

Question: And the Kd (HLA-A*23:01)?
Answer: 2.51 µM

Question: And the Kd (HLA-B*35:01)?
Answer: 0.0697 µM

Question: With FQTLTSCTF as the sequence, how does the Kd (HLA-B*15:01 [7]) read?
Answer: 0.0357 µM

Question: For FQWAIQDGI, which Kd (HLA-B*48:01) is on record?
Answer: 0.082 µM

Question: Which results are given for GLKRGGVLL?
Answer: Kd (HLA-A*11:01; [15]): ≥ 20 µM; Kd (HLA-A*26:01 [8]; [15]): ≥ 20 µM; Kd (HLA-A*69:01; [15]): ≥ 20 µM; Kd (HLA-B*27:05; [15]): ≥ 20 µM; Kd (HLA-B*15:01 [9]; [16]): 0.919 µM; Kd (HLA-B*44:02; [15]): ≥ 20 µM; Kd (HLA-A*03:01; [15]): ≥ 20 µM; Kd (HLA-B*40:01; [15]): ≥ 20 µM; Kd (HLA-A*02:01 [10]; [16]): 2.05 µM; Kd (HLA-B*08:01): ≥ 20 µM; Kd (HLA-A*01:01 [11]; [15]): ≥ 20 µM; Kd (HLA-B*58:01; [15]): ≥ 20 µM; Kd (HLA-A*24:03; [16]): ≥ 20 µM; Kd (HLA-A*31:01; [15]): ≥ 20 µM; Kd (HLA-B*07:02): 8.28 µM

Question: GMLSSLHTL was tested. Which Kd (HLA-A*11:01; [17]) did it give?
Answer: ≥ 20 µM

Question: What about the Kd (HLA-A*26:01 [8]; [17]) of the same sequence?
Answer: ≥ 20 µM

Question: What about the Kd (HLA-A*69:01; [17]) of the same sequence?
Answer: ≥ 20 µM

Question: What about the Kd (HLA-B*27:05; [17]) of the same sequence?
Answer: 2.7 µM

Question: What about the Kd (HLA-B*15:01 [9]; [17]) of the same sequence?
Answer: 0.255 µM

Question: And the Kd (HLA-B*44:02; [17])?
Answer: ≥ 20 µM

Question: What about the Kd (HLA-A*03:01; [17]) of the same sequence?
Answer: ≥ 20 µM

Question: And the Kd (HLA-B*40:01; [17])?
Answer: ≥ 20 µM

Question: And the Kd (HLA-A*02:01 [10]; [17])?
Answer: 0.0187 µM

Question: What about the Kd (HLA-A*01:01 [11]; [17]) of the same sequence?
Answer: ≥ 20 µM

Question: What about the Kd (HLA-B*58:01; [17]) of the same sequence?
Answer: 5.05 µM

Question: What about the Kd (HLA-A*24:03; [17]) of the same sequence?
Answer: 0.215 µM

Question: What about the Kd (HLA-A*31:01; [17]) of the same sequence?
Answer: ≥ 20 µM
